Here are results for 2 molecules from PMC3495168 (Biology of the cell / under the auspices of the European …, 2011).

For the test, the target named is GST-fused full length CIN85 (human, UniProt Q96B97-1 1-665). Put plainly: pull-down.
Chain of GST-fused full length CIN85 (Q96B97 whole entry, the tested form may be a part): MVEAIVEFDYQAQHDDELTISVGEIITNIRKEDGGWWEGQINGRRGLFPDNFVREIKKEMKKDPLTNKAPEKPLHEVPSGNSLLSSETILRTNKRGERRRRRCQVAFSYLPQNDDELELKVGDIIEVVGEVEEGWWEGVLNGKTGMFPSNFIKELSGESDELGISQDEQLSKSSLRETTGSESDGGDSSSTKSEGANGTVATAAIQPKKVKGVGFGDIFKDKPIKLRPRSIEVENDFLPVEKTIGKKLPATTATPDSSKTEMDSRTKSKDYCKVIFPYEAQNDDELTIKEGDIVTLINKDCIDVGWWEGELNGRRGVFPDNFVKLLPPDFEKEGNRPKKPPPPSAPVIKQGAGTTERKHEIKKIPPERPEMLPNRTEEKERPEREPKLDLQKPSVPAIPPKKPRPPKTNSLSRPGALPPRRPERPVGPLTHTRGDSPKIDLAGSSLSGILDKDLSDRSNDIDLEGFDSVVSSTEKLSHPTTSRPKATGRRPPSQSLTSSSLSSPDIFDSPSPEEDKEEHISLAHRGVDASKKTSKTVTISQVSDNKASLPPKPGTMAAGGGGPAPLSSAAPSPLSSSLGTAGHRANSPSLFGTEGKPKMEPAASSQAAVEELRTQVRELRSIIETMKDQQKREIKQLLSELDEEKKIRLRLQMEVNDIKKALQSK

B1: Flag-ARAP1 (natural protein, human, UniProt Q96P48 1-1450, looked up)
chain: MAEAGDAALSVAEWLRALHLEQYTGLFEQHGLVWATECQGLSDTRLMDMGMLLPGHRRRILAGLLRAHTSPAPAPRPTPRPVPMKRHIFRSPPVPATPPEPLPTTTEDEGLPAAPPIPPRRSCLPPTCFTTPSTAAPDPVLPPLPAKRHLAELSVPPVPPRTGPPRLLVSLPTKEEESLLPSLSSPPQPQSEEPLSTLPQGPPQPPSPPPCPPEIPPKPVRLFPEFDDSDYDEVPEEGPGAPARVMTKKEEPPPSRVPRAVRVASLLSEGEELSGDDQGDEEEDDHAYEGVPNGGWHTSSLSLSLPSTIAAPHPMDGPPGGSTPVTPVIKAGWLDKNPPQGSYIYQKRWVRLDTDHLRYFDSNKDAYSKRFISVACISHVAAIGDQKFEVITNNRTFAFRAESDVERKEWMQALQQAMAEQRARARLSSAYLLGVPGSEQPDRAGSLELRGFKNKLYVAVVGDKVQLYKNLEEYHLGIGITFIDMSVGNVKEVDRRSFDLTTPYRIFSFSADSELEKEQWLEAMQGAIAEALSTSEVAERIWAAAPNRFCADCGAPQPDWASINLCVVICKRCAGEHRGLGAGVSKVRSLKMDRKVWTETLIELFLQLGNGAGNRFWAANVPPSEALQPSSSPSTRRCHLEAKYREGKYRRYHPLFGNQEELDKALCAAVTTTDLAETQALLGCGAGINCFSGDPEAPTPLALAEQAGQTLQMEFLRNNRTTEVPRLDSMKPLEKHYSVVLPTVSHSGFLYKTASAGKLLQDRRAREEFSRRWCVLGDGVLSYFENERAVTPNGEIRASEIVCLAVPPPDTHGFEHTFEVYTEGERLYLFGLESAEQAHEWVKCIAKAFVPPLAEDLLARDFERLGRLPYKAGLSLQRAQEGWFSLSGSELRAVFPEGPCEEPLQLRKLQELSIQGDSENQVLVLVERRRTLYIQGERRLDFMGWLGAIQKAAASMGDTLSEQQLGDSDIPVIVYRCVDYITQCGLTSEGIYRKCGQTSKTQRLLESLRQDARSVHLKEGEQHVDDVSSALKRFLRDLPDGLFTRAQRLTWLEASEIEDEEEKVSRYRELLVRLPPVNRATVKALISHLYCVQCFSDTNQMNVHNLAIVFGPTLFQTDGQDYKAGRVVEDLINHYVVVFSVDEEELRKQREEITAIVKMRVAGTASGTQHAGDFICTVYLEEKKAETEQHIKVPASMTAEELTLEILDRRNVGIREKDYWTCFEVNEREEAERPLHFAEKVLPILHGLGTDSHLVVKKHQAMEAMLLYLASRVGDTKHGMMKFREDRSLLGLGLPSGGFHDRYFILNSSCLRLYKEVRSQRPWSGAPETSHRPEKEWPIKSLKVYLGVKKKLRPPTCWGFTVVHETEKHEKQQWYLCCDTQMELREWFATFLFVQHDGLVWPSEPSRVSRAVPEVRLGSVSLIPLRGSENEMRRSVAAFTADPLSLLRNV
Turning to B1, a half-maximal effect (EC50) was put at 5.6 ± 0.9 nM.

B2: Flag-[R86/90A]ARAP1 (natural protein, human, UniProt Q96P48 1-1450, looked up)
chain: MAEAGDAALSVAEWLRALHLEQYTGLFEQHGLVWATECQGLSDTRLMDMGMLLPGHRRRILAGLLRAHTSPAPAPRPTPRPVPMKAHIFASPPVPATPPEPLPTTTEDEGLPAAPPIPPRRSCLPPTCFTTPSTAAPDPVLPPLPAKRHLAELSVPPVPPRTGPPRLLVSLPTKEEESLLPSLSSPPQPQSEEPLSTLPQGPPQPPSPPPCPPEIPPKPVRLFPEFDDSDYDEVPEEGPGAPARVMTKKEEPPPSRVPRAVRVASLLSEGEELSGDDQGDEEEDDHAYEGVPNGGWHTSSLSLSLPSTIAAPHPMDGPPGGSTPVTPVIKAGWLDKNPPQGSYIYQKRWVRLDTDHLRYFDSNKDAYSKRFISVACISHVAAIGDQKFEVITNNRTFAFRAESDVERKEWMQALQQAMAEQRARARLSSAYLLGVPGSEQPDRAGSLELRGFKNKLYVAVVGDKVQLYKNLEEYHLGIGITFIDMSVGNVKEVDRRSFDLTTPYRIFSFSADSELEKEQWLEAMQGAIAEALSTSEVAERIWAAAPNRFCADCGAPQPDWASINLCVVICKRCAGEHRGLGAGVSKVRSLKMDRKVWTETLIELFLQLGNGAGNRFWAANVPPSEALQPSSSPSTRRCHLEAKYREGKYRRYHPLFGNQEELDKALCAAVTTTDLAETQALLGCGAGINCFSGDPEAPTPLALAEQAGQTLQMEFLRNNRTTEVPRLDSMKPLEKHYSVVLPTVSHSGFLYKTASAGKLLQDRRAREEFSRRWCVLGDGVLSYFENERAVTPNGEIRASEIVCLAVPPPDTHGFEHTFEVYTEGERLYLFGLESAEQAHEWVKCIAKAFVPPLAEDLLARDFERLGRLPYKAGLSLQRAQEGWFSLSGSELRAVFPEGPCEEPLQLRKLQELSIQGDSENQVLVLVERRRTLYIQGERRLDFMGWLGAIQKAAASMGDTLSEQQLGDSDIPVIVYRCVDYITQCGLTSEGIYRKCGQTSKTQRLLESLRQDARSVHLKEGEQHVDDVSSALKRFLRDLPDGLFTRAQRLTWLEASEIEDEEEKVSRYRELLVRLPPVNRATVKALISHLYCVQCFSDTNQMNVHNLAIVFGPTLFQTDGQDYKAGRVVEDLINHYVVVFSVDEEELRKQREEITAIVKMRVAGTASGTQHAGDFICTVYLEEKKAETEQHIKVPASMTAEELTLEILDRRNVGIREKDYWTCFEVNEREEAERPLHFAEKVLPILHGLGTDSHLVVKKHQAMEAMLLYLASRVGDTKHGMMKFREDRSLLGLGLPSGGFHDRYFILNSSCLRLYKEVRSQRPWSGAPETSHRPEKEWPIKSLKVYLGVKKKLRPPTCWGFTVVHETEKHEKQQWYLCCDTQMELREWFATFLFVQHDGLVWPSEPSRVSRAVPEVRLGSVSLIPLRGSENEMRRSVAAFTADPLSLLRNV
Take B2: the “fold more GST-CIN85 required for similar binding than for Flag-ARAP1” value was 8 fold.

Usually EC50 stands for the concentration giving half of the maximal effect. A lower EC50 goes with higher potency in that assay.
